Assay results reported in PMC8115288, “INI1/SMARCB1 Rpt1 domain mimics TAR RNA in binding to integrase to facilitate HIV-1 replication”.

Experiments:
[1] = biological target: T1, GST-IN-CTD (HIV-1 integrase C-terminal domain) (HIV-1, UniProt P04585 1348-1435); experiment: competition (AlphaScreen); low salt; competes with His6-SUMO-INI1(183-304) (0.094 uM) for GST-CTD (0.186 uM); Alpha proximity assay, low salt (100 mM NaCl; 500 mM in salt test); buffer, pH and temperature not in the material; details: protein: recombinant; tags: GST; hairpin
[2] = biological target: T1, GST-IN-CTD (HIV-1 integrase C-terminal …); experiment: AlphaScreen; 100 mM NaCl; displaced by INI1(183-304), IC50 of INI1 about 5 nM (Fig. 4e); Alpha proximity assay, low salt (100 mM NaCl; 500 mM in salt test); buffer, pH and temperature not in the material; details: protein: recombinant; tags: GST; label: biotin; hairpin

Binder | IC50 [1] | binding result [2]
unlabeled TAR RNA (HIV-1 vRNA 1-57) (structured_RNA) RNA: GGUCUCUCUGGUUAGACCAGAUCUGAGCCUGGGAGCUCUCUGGCUAACUAGGGAACC | ~5 nM | 
Bio-TAR RNA (HIV-1 vRNA 1-57) (structured_RNA, biotin-dT (terminal; end ambiguous in printed table)) RNA: GGUCUCUCUGGUUAGACCAGAUCUGAGCCUGGGAGCUCUCUGGCUAACUAGGGAACC |  | binds
